Columns and labels:
Assay type in all cases: biochemical
Abl = molecular target: T1, Abl (Homo sapiens, UniProt P00519); test: Millipore radiometric kinase activity assay, Abl (h)
T1 construct: purchased Millipore (assay service)
Procedure: (§1) A commercial radiometric assay service (Millipore, Billerica, Mass.) was used to test the specificity and potency of peptides containing a coupled transduction domain and therapeutic domain, hereinafter “complete peptides”). In these assays, if the kinase is not inhibited by an inhibitor peptide, a positively charged substrate is phosphorylated with a radiolabeled phosphate group from an ATP.
(§2) In a final reaction volume of 25 μL, Abl (h) (5-10 mU) is incubated with 8 mM MOPS pH 7.0, 0.2 mM EDTA, 50 μM […] [SEQ ID NO: 48], 10 mM MgAcetate and [γ-^33P-ATP] (specific activity approx. 500 cpm/pmol, concentration as required). The reaction is initiated by the addition of the MgATP mix. After incubation for 40 minutes at room temperature, the reaction is stopped by the addition of 5 μL of a 3% phosphoric acid solution. 10 μL of the reaction is then spotted onto a P30 filtermat and washed three times for 5 minutes in 75 mM phosphoric acid and once in methanol prior to drying and scintillation counting.
(§3) IC50 values for inhibitor peptides were determined using Millipore's IC50Profiler Express service. The IC50 value was estimated from a 10-point curve of one-half log dilutions. For peptides tested for specificity, the concentration of the peptides that inhibited approximately 95% of MK2 activity was chosen to profile against a battery of kinases related to MK2, cell viability, or human disease from MilliporeKinaseProfiler service. In both assays, compounds were supplied in dimethylsulfoxide (DMSO). Every kinase activity measurement was conducted in duplicate.
(§4) Therapeutic inhibitor peptides were assayed for activity against human kinases related to MK2, cell viability, or human disease. The assays were performed using concentrations of therapeutic inhibitor peptides that yielded 2% to 8% of normal MK2 activity. Error is reported as the standard deviation between 2 samples, and “c” is rat AMPK whereas all other kinases used are human kinases.

FGFR1 = molecular target: T2, FGFR1 (Homo sapiens, UniProt P11362); test: Millipore radiometric kinase activity assay, FGFR1 (h)
T2 construct: purchased Millipore (assay service)
T2 sequence (P11362 22-822): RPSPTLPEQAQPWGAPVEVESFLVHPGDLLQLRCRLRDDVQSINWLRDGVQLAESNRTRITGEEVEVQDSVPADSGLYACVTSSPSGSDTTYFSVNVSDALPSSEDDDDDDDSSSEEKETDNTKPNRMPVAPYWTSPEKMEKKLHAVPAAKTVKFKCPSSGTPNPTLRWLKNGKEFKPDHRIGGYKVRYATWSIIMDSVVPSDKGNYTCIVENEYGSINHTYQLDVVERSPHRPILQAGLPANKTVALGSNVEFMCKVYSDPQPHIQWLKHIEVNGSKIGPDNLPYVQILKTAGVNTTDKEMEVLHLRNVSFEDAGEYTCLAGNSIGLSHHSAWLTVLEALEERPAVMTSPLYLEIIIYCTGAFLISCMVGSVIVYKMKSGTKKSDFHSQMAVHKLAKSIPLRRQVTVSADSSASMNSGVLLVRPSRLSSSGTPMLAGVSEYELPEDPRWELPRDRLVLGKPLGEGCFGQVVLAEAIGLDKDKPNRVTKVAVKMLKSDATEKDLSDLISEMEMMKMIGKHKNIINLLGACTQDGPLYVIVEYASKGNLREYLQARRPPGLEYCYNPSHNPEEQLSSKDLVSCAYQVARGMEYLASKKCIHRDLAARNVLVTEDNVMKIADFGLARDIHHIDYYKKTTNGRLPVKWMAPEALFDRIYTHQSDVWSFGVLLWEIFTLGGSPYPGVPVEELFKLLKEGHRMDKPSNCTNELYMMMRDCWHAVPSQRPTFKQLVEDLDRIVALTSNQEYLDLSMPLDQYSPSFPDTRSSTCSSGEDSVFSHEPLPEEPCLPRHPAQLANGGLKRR
Procedure: as §1
In a final reaction volume of 25 μL, FGFR1 (h) (5-10 mU) is incubated with 8 mM MOPS pH 7.0, 0.2 mM EDTA, 250 μM […] [SEQ ID NO: 56], 10 mM MgAcetate and [γ-^33P-ATP] (specific activity approx. 500 cpm/pmol, concentration as required). The reaction is initiated by the addition of the MgATP mix. After incubation for 40 minutes at room temperature, the reaction is stopped by the addition of 5 μL, of a 3% phosphoric acid solution. 10 μL, of the reaction is then spotted onto a P30 filtermat and washed three times for 5 minutes in 75 mM phosphoric acid and once in methanol prior to drying and scintillation counting.
as §3, §4

GSK3β = molecular target: T3, GSK3β (Homo sapiens, UniProt P49841); test: Millipore radiometric kinase activity assay, GSK3β (h)
T3 construct: purchased Millipore (assay service)
T3 sequence (P49841 whole entry): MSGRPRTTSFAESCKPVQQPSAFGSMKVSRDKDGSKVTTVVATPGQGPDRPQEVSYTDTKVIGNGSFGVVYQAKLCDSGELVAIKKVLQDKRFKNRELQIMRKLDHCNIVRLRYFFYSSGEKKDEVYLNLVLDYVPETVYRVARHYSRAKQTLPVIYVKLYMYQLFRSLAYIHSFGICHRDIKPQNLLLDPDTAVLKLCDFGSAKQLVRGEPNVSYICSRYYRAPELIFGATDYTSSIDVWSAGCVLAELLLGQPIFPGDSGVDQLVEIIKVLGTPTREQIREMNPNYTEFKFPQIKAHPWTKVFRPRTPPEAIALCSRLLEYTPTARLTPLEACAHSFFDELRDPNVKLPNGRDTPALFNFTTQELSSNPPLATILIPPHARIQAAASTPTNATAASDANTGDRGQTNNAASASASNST
Procedure: as §1
In a final reaction volume of 25 μL, GSK3β (h) (5-10 mU) is incubated with 8 mM MOPS pH 7.0, 0.2 mM EDTA, 20 μM […](p)EDEEE [SEQ ID NO: 57] (phospho GS2 peptide), 10 mM MgAcetate and [γ-^33P-ATP] (specific activity approx. 500 cpm/pmol, concentration as required). The reaction is initiated by the addition of the MgATP mix. After incubation for 40 minutes at room temperature, the reaction is stopped by the addition of 5 μL of a 3% phosphoric acid solution. 10 μL of the reaction is then spotted onto a P30 filtermat and washed three times for 5 minutes in 50 mM phosphoric acid and once in methanol prior to drying and scintillation counting.
as §3, §4

MAPK1 = molecular target: T4, MAPK1 (Homo sapiens, UniProt P27361); test: Millipore radiometric kinase activity assay, MAPK1 (h)
T4 construct: purchased Millipore (radiometric assay service)
T4 sequence (P27361 whole entry): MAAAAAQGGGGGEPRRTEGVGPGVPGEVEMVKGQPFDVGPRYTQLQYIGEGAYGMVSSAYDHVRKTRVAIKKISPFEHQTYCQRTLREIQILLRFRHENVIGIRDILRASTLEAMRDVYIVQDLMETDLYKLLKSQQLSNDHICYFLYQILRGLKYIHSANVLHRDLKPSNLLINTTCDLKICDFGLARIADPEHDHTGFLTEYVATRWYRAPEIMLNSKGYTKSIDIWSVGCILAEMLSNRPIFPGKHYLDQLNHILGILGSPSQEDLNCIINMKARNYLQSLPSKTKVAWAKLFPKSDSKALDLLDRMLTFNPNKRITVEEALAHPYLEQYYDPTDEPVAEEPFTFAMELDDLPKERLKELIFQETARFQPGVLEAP
Procedure: as §1
(§5) In a final reaction volume of 25 μL, MAPK1 (h) (5-10 mU) is incubated with 25 mM Tris pH 7.5, 0.02 mM EGTA, 250 μM peptide, 10 mM MgAcetate and [γ-^33P-ATP] (specific activity approx. 500 cpm/pmol, concentration as required). The reaction is initiated by the addition of the MgATP mix. After incubation for 40 minutes at room temperature, the reaction is stopped by the addition of 5 μL of a 3% phosphoric acid solution. 10 μL of the reaction is then spotted onto a P30 filtermat and washed three times for 5 minutes in 75 mM phosphoric acid and once in methanol prior to drying and scintillation counting.
as §3, §4

Pim-1 = molecular target: T5, Pim-1 (Homo sapiens, UniProt P11309); test: Millipore radiometric kinase activity assay, Pim-1 (h)
T5 construct: purchased Millipore (radiometric assay service)
T5 sequence (P11309 whole entry): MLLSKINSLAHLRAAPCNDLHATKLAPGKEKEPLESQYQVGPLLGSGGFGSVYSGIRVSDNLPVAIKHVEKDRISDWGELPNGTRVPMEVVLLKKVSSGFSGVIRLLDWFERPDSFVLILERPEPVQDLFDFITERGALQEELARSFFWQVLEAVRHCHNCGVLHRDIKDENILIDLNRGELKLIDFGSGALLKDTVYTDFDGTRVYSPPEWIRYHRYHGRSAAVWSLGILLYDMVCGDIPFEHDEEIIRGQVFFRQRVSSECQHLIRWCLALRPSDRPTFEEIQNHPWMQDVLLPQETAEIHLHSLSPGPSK
Procedure: as §1
as §2, with “μL, Pim-1” for “μL, Abl”, “EDTA, 100” for “EDTA, 50”, “NO: 59],” for “NO: 48],”
as §3, §4

PKCβI = molecular target: T6, PKCβI (Homo sapiens, UniProt P05771); test: Millipore radiometric kinase activity assay, PKCβI (h)
T6 construct: purchased Millipore (radiometric assay service)
T6 sequence (P05771 whole entry): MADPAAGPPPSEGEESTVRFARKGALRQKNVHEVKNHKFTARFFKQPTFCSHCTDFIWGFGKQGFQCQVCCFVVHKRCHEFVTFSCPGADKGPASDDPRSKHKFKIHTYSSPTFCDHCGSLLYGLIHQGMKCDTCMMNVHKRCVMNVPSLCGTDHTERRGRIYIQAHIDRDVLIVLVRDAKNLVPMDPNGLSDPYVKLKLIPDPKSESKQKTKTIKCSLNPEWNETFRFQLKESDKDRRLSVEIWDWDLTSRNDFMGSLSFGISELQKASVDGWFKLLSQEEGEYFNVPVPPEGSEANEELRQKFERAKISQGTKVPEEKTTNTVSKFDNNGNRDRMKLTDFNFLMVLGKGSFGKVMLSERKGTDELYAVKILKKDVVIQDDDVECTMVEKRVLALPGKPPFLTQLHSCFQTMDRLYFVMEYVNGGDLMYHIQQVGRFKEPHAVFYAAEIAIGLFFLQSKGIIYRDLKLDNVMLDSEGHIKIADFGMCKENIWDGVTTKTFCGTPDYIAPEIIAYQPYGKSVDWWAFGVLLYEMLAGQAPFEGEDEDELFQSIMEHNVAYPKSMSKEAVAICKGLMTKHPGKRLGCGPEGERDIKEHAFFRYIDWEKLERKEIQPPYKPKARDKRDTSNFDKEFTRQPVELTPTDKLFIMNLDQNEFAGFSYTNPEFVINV
Procedure: as §1
as §5, with “μL, PKCβI” for “μL, MAPK1”, “with 20” for “with 25”, “mM HEPES” for “mM Tris”, “pH 7.4, 0.03% Triton X-100, 0.1” for “pH 7.5, 0.02”, “mM CaCl2, 0.1 mg/mL phosphatidylserine, 10 μg/mL diacylglycerol, 0.1 mg/mL histone H1,” for “mM EGTA, 250 μM peptide,”
as §3, §4

T1 sequence (P00519 whole entry): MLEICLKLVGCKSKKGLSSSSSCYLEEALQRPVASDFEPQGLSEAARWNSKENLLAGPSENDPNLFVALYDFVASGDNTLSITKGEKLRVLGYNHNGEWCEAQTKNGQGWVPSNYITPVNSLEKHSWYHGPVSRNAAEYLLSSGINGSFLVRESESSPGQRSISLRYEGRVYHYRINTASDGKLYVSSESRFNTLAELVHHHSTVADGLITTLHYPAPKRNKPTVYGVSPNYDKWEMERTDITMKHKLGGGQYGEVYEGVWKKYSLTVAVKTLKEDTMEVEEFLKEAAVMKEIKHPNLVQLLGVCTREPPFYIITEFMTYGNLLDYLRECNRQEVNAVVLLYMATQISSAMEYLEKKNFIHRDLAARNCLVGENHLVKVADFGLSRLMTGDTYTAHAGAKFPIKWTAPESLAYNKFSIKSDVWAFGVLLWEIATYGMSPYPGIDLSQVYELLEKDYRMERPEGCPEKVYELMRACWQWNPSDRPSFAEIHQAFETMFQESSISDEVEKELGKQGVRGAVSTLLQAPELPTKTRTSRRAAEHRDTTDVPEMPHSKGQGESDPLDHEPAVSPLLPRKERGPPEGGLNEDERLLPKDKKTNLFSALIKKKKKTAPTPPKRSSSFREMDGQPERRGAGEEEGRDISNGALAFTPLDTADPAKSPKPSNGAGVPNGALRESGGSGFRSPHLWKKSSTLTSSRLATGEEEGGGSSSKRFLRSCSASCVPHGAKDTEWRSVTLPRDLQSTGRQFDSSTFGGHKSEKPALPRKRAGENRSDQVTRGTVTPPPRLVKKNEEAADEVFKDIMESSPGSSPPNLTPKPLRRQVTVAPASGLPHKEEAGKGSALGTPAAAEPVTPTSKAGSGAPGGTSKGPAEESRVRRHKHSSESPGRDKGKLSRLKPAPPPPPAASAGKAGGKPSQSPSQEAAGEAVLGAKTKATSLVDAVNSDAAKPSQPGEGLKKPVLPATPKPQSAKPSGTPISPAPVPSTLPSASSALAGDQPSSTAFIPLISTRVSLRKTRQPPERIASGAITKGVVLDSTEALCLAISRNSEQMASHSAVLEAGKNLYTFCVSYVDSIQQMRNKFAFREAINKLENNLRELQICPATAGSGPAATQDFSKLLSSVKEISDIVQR

Row | Sequence | Abl Kinase Activity (%) (+SD %) (Abl; peptide 100 μM) | FGFR1 Kinase Activity (%) (+SD %) (FGFR1; peptide 100 μM) | GSK3β Kinase Activity (%) (+SD %) (GSK3β; peptide 100 μM) | MAPK1 Kinase Activity (%) (+SD %) (MAPK1; peptide 100 μM) | Pim-1 Kinase Activity (%) (+SD %) (Pim-1; peptide 100 μM) | PKCβ1 Kinase Activity (%) (+SD %) (PKCβI; peptide 100 μM) | Abl Kinase Activity (%) (+SD %) (Abl; peptide 30 μM) | FGFR1 Kinase Activity (%) (+SD %) (FGFR1; peptide 30 μM) | GSK3β Kinase Activity (%) (+SD %) (GSK3β; peptide 30 μM) | MAPK1 Kinase Activity (%) (+SD %) (MAPK1; peptide 30 μM) | Pim-1 Kinase Activity (%) (+SD %) (Pim-1; peptide 30 μM) | PKCβ1 Kinase Activity (%) (+SD %) (PKCβI; peptide 30 μM)
1 | KAFAKLAARLYRKALARQLGVAA | 55 (0) % | 35 (1) % | 184 (1) % | 108 (1) % | 1 (2) % | 23 (3) % | – | – | – | – | – | –
2 | WLRRIKAWLRRIKALNRQLGVAA | 41 (2) % | 22 (1) % | 188 (4) % | 104 (3) % | 1 (0) % | 73 (0) % | 24 (5) % | 27 (1) % | 129 (2) % | 121 (5) % | 5 (1) % | 8 (4) %
